Source: patent US20170335314

System: biotinylated anti-BRD7 Fab fragment (murine IgG1 isotype; bFab) (Mus musculus)
Experiment: pulldown
Details: streptavidin bead capture with QPCR readout; PBSM (PBS with 1 mM MgCl2), overnight

## GCAAAGACATCTGGACACGCCACTAAGTGGAGGTGATCTGTACTTCATTTATGAGATCGCGGCGAGGAGAAGGAGACTTAGAGGC [aptamer 228 (10AptR1)]
  Kd: 11 nM
